Key:
Assay in all cases: cell-based or functional assay
[1] = target: HIV-1 92BR020 envelope glycoprotein (Env) on pseudovirus (HIV-1)
[2] = target: HIV-1 92RW020 envelope glycoprotein (Env) on pseudovirus (HIV-1)
[3] = target: HIV-1 92TH021 envelope glycoprotein (Env) on pseudovirus (HIV-1)
[4] = target: HIV-1 92UG005 envelope glycoprotein (Env) on pseudovirus (HIV-1)
[5] = target: HIV-1 92UG024 envelope glycoprotein (Env) on pseudovirus (HIV-1)
[6] = target: HIV-1 Env of isolate JRFL (HIV-1)
[7] = target: HIV-1 Env of isolate MGRM-AE-001 (HIV-1)
[8] = target: HIV-1 Env of isolate MGRM-AE-004 (HIV-1)
[9] = target: HIV-1 Env of isolate MGRM-AE-005 (HIV-1)
[10] = target: HIV-1 Env of isolate MGRM-AE-006 (HIV-1)
[11] = target: HIV-1 Env of isolate MGRM-AE-007 (HIV-1)
[12] = target: HIV-1 Env of isolate MGRM-AE-008 (HIV-1)
[13] = target: HIV-1 Env of isolate MGRM-AG-001 (HIV-1)
[14] = target: HIV-1 Env of isolate MGRM-AG-002 (HIV-1)
[15] = target: HIV-1 Env of isolate MGRM-AG-003 (HIV-1)
[16] = target: HIV-1 Env of isolate MGRM-AG-005 (HIV-1)
[17] = target: HIV-1 Env of isolate MGRM-AG-006 (HIV-1)
[18] = target: HIV-1 Env of isolate MGRM-AG-008 (HIV-1)
[19] = target: HIV-1 Env of isolate MGRM-AG-009 (HIV-1)
[20] = target: HIV-1 Env of isolate MGRM-AG-011 (HIV-1)
[21] = target: HIV-1 Env of isolate MGRM-AG-012 (HIV-1)
[22] = target: HIV-1 Env of isolate MGRM-AG-013 (HIV-1)
[23] = target: HIV-1 Env of isolate MGRM-Chronic-B-010 (HIV-1)
[24] = target: HIV-1 Env of isolate MGRM-Chronic-B-011 (HIV-1)
[25] = target: HIV-1 Env of isolate MGRM-Chronic-B-012 (HIV-1)
[26] = target: HIV-1 Env of isolate MGRM-Chronic-B-017 (HIV-1)
[27] = target: HIV-1 Env of isolate MGRM-Chronic-B-018 (HIV-1)
[28] = target: HIV-1 Env of isolate MGRM-Chronic-B-020 (HIV-1)
[29] = target: HIV-1 Env of isolate MGRM-Chronic-B-023 (HIV-1)
[30] = target: HIV-1 Env of isolate MGRM-Chronic-B-024 (HIV-1)
[31] = target: HIV-1 Env of isolate MGRM-G-001 (HIV-1)
[32] = target: HIV-1 Env of isolate MGRM-G-004 (HIV-1)
[33] = target: HIV-1 Env of isolate MGRM-G-006 (HIV-1)
[34] = target: HIV-1 Env of isolate MGRM-G-009 (HIV-1)
[35] = target: HIV-1 MGRM-F1-006 Env (pseudovirus) (HIV-1)
[36] = target: HIV-1 NL43 envelope glycoprotein (Env) on pseudovirus (HIV-1)
[37] = target: aMLV envelope (negative control pseudovirus)
[38] = target: HIV-1 Env of isolate MGRM-D-003 (HIV-1)

Chain of 1443_C16 (PG16) (TCN-116) (antibody) (VH): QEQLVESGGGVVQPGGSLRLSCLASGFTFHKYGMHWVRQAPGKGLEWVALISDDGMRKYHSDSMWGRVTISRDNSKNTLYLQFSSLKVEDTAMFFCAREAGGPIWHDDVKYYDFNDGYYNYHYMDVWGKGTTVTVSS
Chain of 1443_C16 (PG16) (TCN-116) (antibody) (VL): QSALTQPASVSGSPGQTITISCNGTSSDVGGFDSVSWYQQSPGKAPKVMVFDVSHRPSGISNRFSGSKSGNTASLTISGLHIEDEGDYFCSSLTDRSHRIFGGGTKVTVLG

1443_C16 (PG16) (TCN-116) (antibody)
IC90 (pseudovirus neutralization) [1]: > 50 µg/mL | IC90 (pseudovirus neutralization) [2]: > 50 µg/mL | IC90 (pseudovirus neutralization) [3]: 23.4 µg/mL | IC90 (pseudovirus neutralization) [4]: > 50 µg/mL | IC90 (pseudovirus neutralization) [5]: > 50 µg/mL | IC50 (µg/ml), pseudovirus neutralization [6]: > 50 µg/mL | IC50 (µg/ml), pseudovirus neutralization [7]: 4.33 µg/mL | IC50 (µg/ml), pseudovirus neutralization [8]: 0.002 µg/mL | IC50 (µg/ml), pseudovirus neutralization [9]: 0.02 µg/mL | IC50 (µg/ml), pseudovirus neutralization [10]: 0.03 µg/mL | IC50 (µg/ml), pseudovirus neutralization [11]: 0.04 µg/mL | IC50 (µg/ml), pseudovirus neutralization [12]: 3.25 µg/mL | IC50 (µg/ml), pseudovirus neutralization [13]: 0.03 µg/mL | IC50 (µg/ml), pseudovirus neutralization [14]: 0.03 µg/mL | IC50 (µg/ml), pseudovirus neutralization [15]: > 50 µg/mL | IC50 (µg/ml), pseudovirus neutralization [16]: > 50 µg/mL | IC50 (µg/ml), pseudovirus neutralization [17]: > 50 µg/mL | IC50 (µg/ml), pseudovirus neutralization [18]: 0.002 µg/mL | IC50 (µg/ml), pseudovirus neutralization [19]: > 50 µg/mL | IC50 (µg/ml), pseudovirus neutralization [20]: 0.002 µg/mL | IC50 (µg/ml), pseudovirus neutralization [21]: 25.1 µg/mL | IC50 (µg/ml), pseudovirus neutralization [22]: 0.31 µg/mL | IC50 (µg/ml), pseudovirus neutralization [23]: 0.01 µg/mL | IC50 (µg/ml), pseudovirus neutralization [24]: > 50 µg/mL | IC50 (µg/ml), pseudovirus neutralization [25]: 3.74 µg/mL | IC50 (µg/ml), pseudovirus neutralization [26]: 0.02 µg/mL | IC50 (µg/ml), pseudovirus neutralization [27]: 0.7 µg/mL | IC50 (µg/ml), pseudovirus neutralization [28]: > 50 µg/mL | IC50 (µg/ml), pseudovirus neutralization [29]: 0.13 µg/mL | IC50 (µg/ml), pseudovirus neutralization [30]: 0.01 µg/mL | IC50 (µg/ml), pseudovirus neutralization [31]: 0.15 µg/mL | IC50 (µg/ml), pseudovirus neutralization [32]: > 50 µg/mL | IC50 (µg/ml), pseudovirus neutralization [33]: 2.42 µg/mL | IC50 (µg/ml), pseudovirus neutralization [34]: > 50 µg/mL | IC50 (µg/ml), pseudovirus neutralization [35]: 0.27 µg/mL | IC90 (pseudovirus neutralization) [36]: > 50 µg/mL | IC50 (µg/ml), pseudovirus neutralization [37]: > 50 µg/mL

1496_C09 (PG9) (TCN-109) (antibody)
IC50 (ug/ml), neutralizing activity [2]: 0.161 µg/mL | IC50 neutralization [2]: 0.161 µg/mL | IC80, neutralization [2]: 1.04 µg/mL | IC90 (pseudovirus neutralization) [2]: 6.55 µg/mL | IC90, neutralization [2]: 3.4 µg/mL | IC50 (ug/ml), neutralizing activity [3]: 0.103 µg/mL | IC50 neutralization [3]: 0.103 µg/mL | IC80, neutralization [3]: 0.448 µg/mL | IC90 (pseudovirus neutralization) [3]: 1.99 µg/mL | IC90, neutralization [3]: 1.07 µg/mL | IC95, neutralization [3]: 2.43 µg/mL | IC50 (ug/ml), neutralizing activity [5]: 1.91 µg/mL | IC50 neutralization [5]: 1.91 µg/mL | IC50 (µg/mL), pseudovirus neutralization [7]: 20.6 µg/mL | IC50 (µg/ml), pseudovirus neutralization [7]: 2.97 µg/mL | IC50 (µg/mL), pseudovirus neutralization [8]: 0.009 µg/mL | IC50 (µg/ml), pseudovirus neutralization [8]: 0.01 µg/mL | IC50 (µg/mL), pseudovirus neutralization [9]: 0.282 µg/mL | IC50 (µg/ml), pseudovirus neutralization [9]: 0.16 µg/mL | IC50 (µg/mL), pseudovirus neutralization [10]: 0.063 µg/mL | IC50 (µg/ml), pseudovirus neutralization [10]: 0.05 µg/mL | IC50 (µg/mL), pseudovirus neutralization [11]: 0.18 µg/mL | IC50 (µg/mL), pseudovirus neutralization [12]: 31.5 µg/mL | IC50 (µg/ml), pseudovirus neutralization [12]: 10.6 µg/mL | IC50 (µg/mL), pseudovirus neutralization [13]: 17.1 µg/mL | IC50 (µg/ml), pseudovirus neutralization [13]: 8.83 µg/mL | IC50 (µg/mL), pseudovirus neutralization [14]: 0.076 µg/mL | IC50 (µg/ml), pseudovirus neutralization [14]: 0.04 µg/mL | IC50 (µg/ml), pseudovirus neutralization [15]: 9.71 µg/mL | IC50 (µg/ml), pseudovirus neutralization [16]: 29.7 µg/mL | IC50 (µg/mL), pseudovirus neutralization [20]: 0.007 µg/mL | IC50 (µg/ml), pseudovirus neutralization [20]: 0.01 µg/mL | IC50 (µg/mL), pseudovirus neutralization [21]: 22.8 µg/mL | IC50 (µg/ml), pseudovirus neutralization [21]: 1.37 µg/mL | IC50 (µg/mL), pseudovirus neutralization [22]: 0.259 µg/mL | IC50 (µg/ml), pseudovirus neutralization [22]: 0.23 µg/mL | IC50 (µg/ml), pseudovirus neutralization [23]: 0.004 µg/mL | IC50 (µg/ml), pseudovirus neutralization [25]: 0.91 µg/mL | IC50 (µg/ml), pseudovirus neutralization [26]: 0.32 µg/mL | IC50 (µg/ml), pseudovirus neutralization [27]: 0.16 µg/mL | IC50 (µg/ml), pseudovirus neutralization [29]: 0.04 µg/mL | IC50 (µg/ml), pseudovirus neutralization [30]: 0.18 µg/mL | IC50 (µg/mL), pseudovirus neutralization [38]: 0.033 µg/mL | IC50 (µg/ml), pseudovirus neutralization [31]: 0.16 µg/mL | IC50 (µg/ml), pseudovirus neutralization [33]: 0.51 µg/mL | IC50 (µg/ml), pseudovirus neutralization [34]: 4.9 µg/mL | IC50 (µg/ml), pseudovirus neutralization [35]: 1.45 µg/mL | IC50 (ug/ml), neutralizing activity [36]: 0.687 µg/mL | IC50 neutralization [36]: 0.687 µg/mL

b12 (antibody)
IC90 (pseudovirus neutralization) [1]: > 50 µg/mL | IC90 (pseudovirus neutralization) [2]: > 50 µg/mL | IC90 (pseudovirus neutralization) [3]: > 50 µg/mL | IC90 (pseudovirus neutralization) [4]: > 50 µg/mL | IC90 (pseudovirus neutralization) [5]: > 50 µg/mL | IC50 (µg/ml), pseudovirus neutralization [6]: 0.02 µg/mL | IC50 (µg/ml), pseudovirus neutralization [7]: 25.9 µg/mL | IC50 (µg/ml), pseudovirus neutralization [8]: > 50 µg/mL | IC50 (µg/ml), pseudovirus neutralization [9]: 0.63 µg/mL | IC50 (µg/ml), pseudovirus neutralization [10]: > 50 µg/mL | IC50 (µg/ml), pseudovirus neutralization [11]: > 50 µg/mL | IC50 (µg/ml), pseudovirus neutralization [12]: > 50 µg/mL | IC50 (µg/ml), pseudovirus neutralization [13]: 11.9 µg/mL | IC50 (µg/ml), pseudovirus neutralization [14]: 0.89 µg/mL | IC50 (µg/ml), pseudovirus neutralization [15]: > 50 µg/mL | IC50 (µg/ml), pseudovirus neutralization [16]: > 50 µg/mL | IC50 (µg/ml), pseudovirus neutralization [17]: > 50 µg/mL | IC50 (µg/ml), pseudovirus neutralization [18]: > 50 µg/mL | IC50 (µg/ml), pseudovirus neutralization [19]: > 50 µg/mL | IC50 (µg/ml), pseudovirus neutralization [20]: > 50 µg/mL | IC50 (µg/ml), pseudovirus neutralization [21]: 10.4 µg/mL | IC50 (µg/ml), pseudovirus neutralization [22]: > 50 µg/mL | IC50 (µg/ml), pseudovirus neutralization [23]: > 50 µg/mL | IC50 (µg/ml), pseudovirus neutralization [24]: 2.11 µg/mL | IC50 (µg/ml), pseudovirus neutralization [25]: > 50 µg/mL | IC50 (µg/ml), pseudovirus neutralization [26]: 2.59 µg/mL | IC50 (µg/ml), pseudovirus neutralization [27]: 0.66 µg/mL | IC50 (µg/ml), pseudovirus neutralization [28]: 6.16 µg/mL | IC50 (µg/ml), pseudovirus neutralization [29]: > 50 µg/mL | IC50 (µg/ml), pseudovirus neutralization [30]: > 50 µg/mL | IC50 (µg/ml), pseudovirus neutralization [31]: > 50 µg/mL | IC50 (µg/ml), pseudovirus neutralization [32]: > 50 µg/mL | IC50 (µg/ml), pseudovirus neutralization [33]: > 50 µg/mL | IC50 (µg/ml), pseudovirus neutralization [34]: > 50 µg/mL | IC50 (µg/ml), pseudovirus neutralization [35]: > 50 µg/mL | IC90 (pseudovirus neutralization) [36]: 0.28 µg/mL | IC50 (µg/ml), pseudovirus neutralization [37]: > 50 µg/mL
